B1: Peroxisome proliferator-activated receptor gamma coactivator 1-alpha (Homo sapiens), Q9UBK2 (parent)
chain: MAWDMCNQDSESVWSDIECAALVGEDQPLCPDLPELDLSELDVNDLDTDSFLGGLKWCSDQSEIISNQYNNEPSNIFEKIDEENEANLLAVLTETLDSLPVDEDGLPSFDALTDGDVTTDNEASPSSMPDGTPPPQEAEEPSLLKKLLLAPANTQLSYNECSGLSTQNHANHNHRIRTNPAIVKTENSWSNKAKSICQQQKPQRRPCSELLKYLTTNDDPPHTKPTENRNSSRDKCTSKKKSHTQSQSQHLQAKPTTLSLPLTPESPNDPKGSPFENKTIERTLSVELSGTAGLTPPTTPPHKANQDNPFRASPKLKSSCKTVVPPPSKKPRYSESSGTQGNNSTKKGPEQSELYAQLSKSSVLTGGHEERKTKRPSLRLFGDHDYCQSINSKTEILINISQELQDSRQLENKDVSSDWQGQICSSTDSDQCYLRETLEASKQVSPCSTRKQLQDQEIRAELNKHFGHPSQAVFDDEADKTGELRDSDFSNEQFSKLPMFINSGLAMDGLFDDSEDESDKLSYPWDGTQSYSLFNVSPSCSSFNSPCRDSVSPPKSLFSQRPQRMRSRSRSFSRHRSCSRSPYSRSRSRSPGSRSSSRSCYYYESSHYRHRTHRNSPLYVRSRSRSPYSRRPRYDSYEEYQHERLKREEYRREYEKRESERAKQRERQRQKAIEERRVIYVGKIRPDTTRTELRDRFEVFGEIEECTVNLRDDGDSYGFITYRYTCDAFAALENGYTLRRSNETDFELYFCGRKQFFKSNYADLDSNSDDFDPASTKSKYDSLDFDSLLKEAQRSLRR
partner: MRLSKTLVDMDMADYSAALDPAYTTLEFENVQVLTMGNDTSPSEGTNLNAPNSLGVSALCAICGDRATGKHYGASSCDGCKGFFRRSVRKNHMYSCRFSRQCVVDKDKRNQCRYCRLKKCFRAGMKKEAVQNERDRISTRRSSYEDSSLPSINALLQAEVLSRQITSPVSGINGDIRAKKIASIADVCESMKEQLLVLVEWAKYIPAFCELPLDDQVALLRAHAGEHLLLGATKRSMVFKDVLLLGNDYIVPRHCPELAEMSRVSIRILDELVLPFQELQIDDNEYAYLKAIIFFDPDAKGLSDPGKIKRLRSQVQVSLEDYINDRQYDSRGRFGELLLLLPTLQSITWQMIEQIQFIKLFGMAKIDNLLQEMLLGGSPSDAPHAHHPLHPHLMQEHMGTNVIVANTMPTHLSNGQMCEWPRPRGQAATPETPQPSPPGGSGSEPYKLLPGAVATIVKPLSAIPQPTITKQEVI

What was measured:
[1] = variants of: B1; settings: with hnf4a_human HNF4A
[2] = variants of: B1; settings: with hnf4a_human HNF4A; remark: listed apart in the source

Row | Variant | effect of a mutation on the interaction [1] | effect of a mutation on the interaction [2]
1 | Y213A;L214A | decreasing interaction | 
2 | V91A;L92A;Y213A;L214A | decreasing interaction | decreasing interaction
3 | V91A;L92A;L147A;L148A;Y213A;L214A | disrupting interaction | disrupting interaction
4 | L147A;L148A | decreasing interaction | 
5 | L147A;L148A;Y213A;L214A | disrupting interaction | disrupting interaction
6 | V91A;L92A;L147A;L148A | decreasing interaction | decreasing interaction
7 | V91A;L92A |  | decreasing interaction

Source: IntAct's records for PubMed 19846556
